Molecular target: APC
Sequence (Q14114 33-826): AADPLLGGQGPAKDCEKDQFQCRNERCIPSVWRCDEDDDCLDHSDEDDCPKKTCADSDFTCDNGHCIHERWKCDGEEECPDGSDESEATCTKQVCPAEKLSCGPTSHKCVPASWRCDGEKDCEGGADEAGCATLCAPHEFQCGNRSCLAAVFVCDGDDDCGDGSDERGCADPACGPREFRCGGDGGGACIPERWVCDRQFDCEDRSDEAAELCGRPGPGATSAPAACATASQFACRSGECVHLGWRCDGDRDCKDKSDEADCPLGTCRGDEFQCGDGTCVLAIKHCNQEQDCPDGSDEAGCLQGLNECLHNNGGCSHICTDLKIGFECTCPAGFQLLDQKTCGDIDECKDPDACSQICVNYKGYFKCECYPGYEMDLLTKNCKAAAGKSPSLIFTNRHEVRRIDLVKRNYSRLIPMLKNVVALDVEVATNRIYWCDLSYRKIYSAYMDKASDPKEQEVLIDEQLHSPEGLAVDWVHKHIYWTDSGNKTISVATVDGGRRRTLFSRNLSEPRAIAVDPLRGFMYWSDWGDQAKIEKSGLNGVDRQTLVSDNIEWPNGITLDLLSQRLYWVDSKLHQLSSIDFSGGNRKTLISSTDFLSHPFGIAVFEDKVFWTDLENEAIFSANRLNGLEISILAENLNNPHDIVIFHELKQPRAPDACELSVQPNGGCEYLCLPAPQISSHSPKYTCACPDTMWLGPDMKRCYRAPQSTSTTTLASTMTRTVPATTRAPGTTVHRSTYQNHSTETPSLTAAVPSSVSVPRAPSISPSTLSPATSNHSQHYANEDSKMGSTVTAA

B1: ApoER2 (as bound by APC) (receptor)
chain: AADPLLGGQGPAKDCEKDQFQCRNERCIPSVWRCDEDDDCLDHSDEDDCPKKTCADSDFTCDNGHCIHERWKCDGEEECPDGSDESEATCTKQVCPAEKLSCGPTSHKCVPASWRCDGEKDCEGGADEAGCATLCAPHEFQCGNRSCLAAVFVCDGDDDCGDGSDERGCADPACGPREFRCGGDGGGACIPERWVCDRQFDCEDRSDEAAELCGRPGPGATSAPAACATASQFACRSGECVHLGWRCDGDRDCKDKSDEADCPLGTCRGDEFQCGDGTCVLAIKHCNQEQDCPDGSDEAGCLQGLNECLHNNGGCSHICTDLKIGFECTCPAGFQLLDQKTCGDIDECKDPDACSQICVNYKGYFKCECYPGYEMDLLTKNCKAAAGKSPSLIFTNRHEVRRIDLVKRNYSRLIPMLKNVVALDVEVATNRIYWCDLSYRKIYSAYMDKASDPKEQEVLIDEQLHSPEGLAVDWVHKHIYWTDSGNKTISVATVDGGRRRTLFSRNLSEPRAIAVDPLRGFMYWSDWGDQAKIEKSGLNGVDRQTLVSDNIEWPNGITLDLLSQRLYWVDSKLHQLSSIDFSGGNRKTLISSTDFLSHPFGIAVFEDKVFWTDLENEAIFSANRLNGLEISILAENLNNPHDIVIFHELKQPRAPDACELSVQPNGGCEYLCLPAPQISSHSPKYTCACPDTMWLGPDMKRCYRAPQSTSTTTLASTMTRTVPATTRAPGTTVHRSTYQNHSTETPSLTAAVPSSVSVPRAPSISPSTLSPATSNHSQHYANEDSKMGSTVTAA
Kd: 30 nM

From patent US20190169246A1 (UNIVERSITY OF SOUTH FLORIDA, published 2019)
